Assay results reported in article doi:10.1101/2023.03.19.532587 (bioRxiv, 2023).

Molecular target: the molecule itself
Experiment: SEC-MALS

B1: nCPEB4-NTD (N-terminal domain of neuronal CPEB4, with microexon 4) (domain or fragment, human)
chain: MGDYGFGVLVQSNTGNKSAFPVRFHPHLQPPHHHQNATPSPAAFINNNTAANGSSAGSAWLFPAPATHNIQDEILGSEKAKSQQQEQQDPLEKQQLSPSPGQEAGILPETEKAKSEENQGDNSSENGNGKEKIRIESPVLTGFDYQEATGLGTSTQPLTSSASSLTGFSNWSAAIAPSSSTIINEDASFFHQGGVPAASANNGALLFQNFPHHVSPGFGGSFSPQIGPLSQHHPHHPHFQHHHSQHQQQRRSPASPHPPPFTHRNAAFNQLPHLANNLNKPPSPWSSYQSPSPTPSSSWSPGGGGYGGWGGSQGRDHRRGLNGGITPLNSISPLKKNFASNHIQLQKYARPSSAFAPKSWMEDSLNRADNIFPFPDRPRTFDMHSLESSLIDIMRAENDTIKARTYGRRRGQSSLFPMEDGFLDDGRGDQPLHSGLGSPHCFSHQNGE
**Q.** How did the “stoichiometry N” value turn out when B1 was run?
**A.** ~350 molecules
